Source: US20090099093A1 (Stanford University, published 2009)
No end group written: not given here.

Molecular target: Mushroom tyrosinase (mushroom, UniProt C7FF04 1-392)
Assay: cell-based or functional assay

Chain of Mushroom tyrosinase (C7FF04 1-392): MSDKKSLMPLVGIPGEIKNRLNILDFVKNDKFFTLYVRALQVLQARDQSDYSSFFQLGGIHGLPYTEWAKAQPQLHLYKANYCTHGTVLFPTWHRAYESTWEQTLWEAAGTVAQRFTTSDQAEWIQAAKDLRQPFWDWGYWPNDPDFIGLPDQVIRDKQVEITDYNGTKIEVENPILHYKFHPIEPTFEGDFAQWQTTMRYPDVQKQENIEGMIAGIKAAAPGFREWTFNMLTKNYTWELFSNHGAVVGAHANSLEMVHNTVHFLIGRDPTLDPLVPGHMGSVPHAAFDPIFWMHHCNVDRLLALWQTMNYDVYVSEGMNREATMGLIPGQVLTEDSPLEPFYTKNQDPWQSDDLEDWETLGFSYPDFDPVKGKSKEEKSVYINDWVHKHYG

B1: RA peptide (RADSRADC) (peptide)
peptide: RADSRADC
IC50 (inhibition of mushroom tyrosinase activity, dopachrome at 475 nm, L-tyrosine substrate): 123 µM

B2: SF peptide (SFLLRN) (peptide)
peptide: SFLLRN
IC50 (inhibition of mushroom tyrosinase activity, dopachrome at 475 nm, L-tyrosine substrate): 8000 µM

B3: PLG-OH (peptide)
peptide: Pro-Leu-Gly-OH
IC50 (inhibition of mushroom tyrosinase activity, dopachrome at 475 nm, L-tyrosine substrate): 2730 µM
